Reference: US12258605B2, “Alkane oxidation by modified hydroxylases” (The California Institute of Technology, priority 2005, dated 2025)
Marks after values point to notes of the source that are not given here.

Key:
Format in all cases: biochemical
[1] = Methane to methanol conversion (alcohol oxidase/Purpald); details: methane to methanol
Protocol: The 35-E11 variant was tested for the ability to convert methane to methanol using the method of Anthon and Barrett (Agric. Food Chem., 52:3749 (2004)). The method was optimized so that it could detect methanol concentrations in water as low as 10 μM.
The mutant BM-3 enzymes described below were purified using published procedures and used as catalysts in small reactions with methane. In glass head space vials containing magnetic stirring bars, BM-3 catalyst was added to 0.1 M potassium phosphate buffer (pH=8) saturated with methane. The vials were then crimped shut and charged to 20 psi with methane. To start the biotransformation, an NADPH regeneration system consisting of NADP+, isocitrate, and isocitric dehydrogenase was added through a syringe. The reaction was allowed to stir 12-15 hours. Methanol production was measured using a coupled enzyme assay. Aliquots of the reaction were transferred to 96-well microtitre plates and reacted with the enzyme alcohol oxidase for 5 minutes at room temperature. Alcohol oxidase converts the methanol produced by the BM-3 variants into formaldehyde which can be detected with the dye Purpald. To detect formaldehyde and quench the alcohol oxidase reaction, a solution of Purpald in 2 M NaOH was added and allowed to react for one hour. The purple color that Purpald forms in the presence of formaldehyde was quantified one hour later by spectrophotometrically reading the well at 550 nm and comparing the absorbance against similarly-treated solutions of BM-3, NADPH regeneration system, and methane-free buffer spiked with known concentrations of methanol. The results of these biotransformations are reported in Table 3 and sample spectra from the colorimetric assay are shown in FIG. 7.
Reactions for enzyme-catalyzed conversion of methane to methanol were carried out in 10 mL glass headspace vials. A 470 μL reaction mixture containing 5 μM purified BM-3 variant in 0.1 M potassium phosphate buffer (pH 8.0) was first added to the vial. The vial was immediately topped with a septum, pressurized with 30 psi of methane and shaken at 4° C. for 1 hour. […] For determination of total turnover, the reaction was allowed to proceed for 20 hours at room temperature.
The amount of methanol product formed during the 20 hr methane reaction was quantified colorimetrically with the use of alcohol oxidase and Purpald. 190 μL of the reaction mixture is transferred onto a single cell of a 96 well plate. 10 μL of 0.05 U/μL solution of alcohol oxidase (from Pichia pastoris, purchased from Sigma-Aldrich) was added to cell and allowed to incubate at room temperature for 5 minutes. During this time, the alcohol oxidase converts the methanol into formaldehyde. Purpald (168 mM in 2 M NAOH) was then added to form a purple product with the formaldehyde in solution. The purple color was read approximately 1 hour later at 550 nm using a Spectramax Plus microtiter plate reader. The concentration of methanol was determined based on the measure absorbance in comparison to a methanol calibration curve. The methanol calibration curve was generated with several standards. Each standard contained 100 μL of a methanol solution (10, 20, 40, 60, 100 μM) and 90 μL of the methane reaction mixture described above, without the methane pressurization.
The relative dimethyl ether (DME) activity was measured, 1 hour after treatment with Purpald, as the average net and absorbance at 550 nm from 8 microtitre plate DME reactions of the mutant compared to 8 equivalent reactions of 35-E11. All values were normalized by measuring the P450 concentration in each well with CO binding. “Asteriks” indicate criteria used to select mutants from libraries for further characterization. The oxidation rate is measured as absorbance change at 340 nm over 1 minute upon the addition of NADPH to 8 microtitre plate wells containing P450-containing cell lysate and compared to 8 equivalent reactions of 35-E11. […]

[2] = Background NADPH oxidation rate in screen (cell lysate, no substrate); details: relative to 35-E11
Protocol: (§1) Libraries of mutants of 35-E11 were screened for phenotypes indicative of either increased product formation on small gaseous substrates slightly larger than methane. Additionally, they were screened for increased coupling of the consumption of NADPH reducing equivalents to product formation. Product formation was determined by measuring total amount of dimethyl ether hydroxylation while increased coupling was determined primarily by decreased background NADPH consumption rates (measured spectrophotometrically at 340 nm in the absence of substrate).
The relative dimethyl ether (DME) activity was measured, 1 hour after treatment with Purpald, as the average net and absorbance at 550 nm from 8 microtitre plate DME reactions of the mutant compared to 8 equivalent reactions of 35-E11. All values were normalized by measuring the P450 concentration in each well with CO binding. “Asteriks” indicate criteria used to select mutants from libraries for further characterization. The oxidation rate is measured as absorbance change at 340 nm over 1 minute upon the addition of NADPH to 8 microtitre plate wells containing P450-containing cell lysate and compared to 8 equivalent reactions of 35-E11. All values were normalized by measuring the P450 concentration in each well with CO binding. The total turnover number (TTN) was measured as the absorbance at 550 nm of methane reactions with each mutant after treatment with alcohol oxidase and […]

[3] = High-throughput dimethyl ether (DME) screen; details: relative to 35-E11; normalized to P450 concentration
Protocol: Cell lysates for high throughput screening were prepared as described previously (Peters et al., J. Am. Chem. Soc. 125:13442 (2003); incorporated by reference herein). High-throughput dimethyl ether (DME) screens were performed in 96 well plates as described previously. Improved mutants were selected based on an increased signal compared to 9-10A (for the saturation mutagenesis libraries) and 1-12G (for the recombination library). Reactions on octane and propane were analyzed by gas chromatography as described.
as §1
The relative dimethyl ether (DME) activity was measured, 1 hour after treatment with Purpald, as the average net and absorbance at 550 nm from 8 microtitre plate DME reactions of the mutant compared to 8 equivalent reactions of 35-E11. All values were normalized by measuring the P450 concentration in each well with CO binding. “Asteriks” indicate criteria used to select mutants from libraries for further characterization. The oxidation rate is measured as absorbance change at 340 nm over 1 minute upon the addition of NADPH to 8 microtitre plate wells containing P450-containing cell lysate and compared to 8 equivalent reactions of 35-E11. All values were normalized by measuring the P450 concentration in each well with CO binding. The total turnover number (TTN) was measured as the absorbance at 550 nm of methane reactions with each mutant after treatment with alcohol oxidase and
Screening libraries by spectroscopically monitoring NADPH consumption rates in the presence of the alkane often selects for mutants with NADPH oxidation rates highly uncoupled to product formation. This can be overcome through the use of surrogate substrates that mimic desired substrates, yet yield species when hydroxylated that are easily detected either directly or with the addition of a dye. For example, the screen for the high-throughput identification of mutant BM-3 enzymes with activity towards propane as described previously uses dimethyl ether (DME) as a propane surrogate substrate. Upon hydroxylation, it decomposes into methanol and dye-sensitive formaldehyde. In addition, hexyl methyl ether (HME) may be used as a surrogate for octane. It shares most of the physical properties of octane, including solubility in buffer, size, shape, and strength of its C—H bonds. When HME is hydroxylated at its methoxy carbon, it also produces an equivalent of formaldehyde which is visually detected at concentrations as low as 10 μM with the dye Purpald (see FIG. 25). Hexanal, the aldehyde product formed when the α-carbon of the hexyl group is hydroxylated, is practically unreactive towards Purpald at some concentrations used in the present screens. Formaldehyde is approximately 42 times more sensitive to Purpald than hexanal (see FIG. 26). This disproportionate response makes HME, in contrast to the symmetric ether DME, a regio-selective screen for terminal alkane hydroxylation.
High-throughput screening. Single colonies were picked and inoculated by a Qpix robot (Genetix, Beaverton, OR) into 1-mL, deep-well plates containing LB (Amp*) medium (400 μL). The plates were incubated at 30° C., 250 rpm, and 80% relative humidity. After 24 h, 50 μL from this pre-culture were used to inoculate a 2-mL, deep-well plates containing […] TB (Amp^+) medium per well. Cultures were grown at 37° C., 220 rpm, and 80% relative humidity. […]

| Molecule | Methane TTN [1] | Relative background NADPH oxidation rate [2] | Relative DME activity in screen [3] |
| --- | --- | --- | --- |
| 35-E11-E464R: P450 BM-3 variant, SEQ ID NO:8; 35-E11 with E464R (protein, mutant P450 35-E11-E464R protein sequence, 35-E11 with E464R) TIKEMPQPKTFGELKNLPLLNTDKPVQALMKIADELGEIFKFEAPGCVTRYLSSQRLIKEACDESRFDKNLSQALKFFRDFSGDGLFTSWTHEINWKKAHNILLPSFSQQAMKGYHAMMVDIAVQLVQKWERLNADEHIEVSEDMTRLTLDTIGLCGFNYRFNSFYRDQPHPFIISMVRALDEVMNKLQRANPDDPAYDENKRQCQEDIKVMNDLVDKIIADRKARGEQSDDLLTQMLNGKDPETGEPLDDGNISYQIITFLIAGHETTSGLLSFALYFLVKNPHVLQKVVEEAARVLVDPVPSYKQVKQLKYVGMVLNEALRLWPTFPAFSLYAKEDTVLGGEYPLEKGDEVMVLIPQLHRDKTIWGDDVEEFRPERFENPSAIPQHAFKPFGNGQRACIGQQFALHEATLVLGMMLKHFDFEDHTNYELDIKETLTLKPEGFVVKAKSKKIPLGGIPSPSTRQSAKKVRKKAENAHNTPLLVLYGSNMGTAEGTARDLADIAMSKGFAPQVATLDSHAGNLPREGAVLIVTASYNGHPPDNAKQFVDWLDQASADEVKGVRYSVFGCGDKNWATTYQKVPAFIDETLAAKGAENIADRGEADASDDFEGTYEEWREHMWSDVAAYFNLDIENSEDNKSTLSLQFVDSAADMPLAKMHGAFSTNVVASKELQQPGSARSTRHLEIELPKEASYQEGDHLGVIPRNYEGTVNRVTARFGLDASQQIRLEAEEEKLAHLPLAKTVSVEELLQYVELQDPVTRTQLRAMAAKTVCPPHKVELEALLEKQAYKEQVLAKRLTMLELLEKYPACEMKFSEFIALLPSIRPRYYSISSSPRVDEKQASITVSVVSGEAWSGYGEYKGIASNYLAELQEGDTITCFISTPQSEFTLPKDPETPLIMVGPGTGVAPFRGFVQARKQLKEQGQSLGEAHLYFGCRSPHEDYLYQEELENAQSEGIITLHTAFSRMPNQPKTYVQHVMEQDGKKLIELLDQGAHFYICGDGSQMAPAVEATLMKSYADVHQVSEADARLWLQQLEEKGRYAKDVWAG | 12 | 0.6* | 0.9 |
| 35-E11-E464Y: P450 BM-3 variant, SEQ ID NO:9; 35-E11 with E464Y (protein, mutant P450 35-E11-E464Y protein sequence, 35-E11 with E464Y) TIKEMPQPKTFGELKNLPLLNTDKPVQALMKIADELGEIFKFEAPGCVTRYLSSQRLIKEACDESRFDKNLSQALKFFRDFSGDGLFTSWTHEINWKKAHNILLPSFSQQAMKGYHAMMVDIAVQLVQKWERLNADEHIEVSEDMTRLTLDTIGLCGFNYRFNSFYRDQPHPFIISMVRALDEVMNKLQRANPDDPAYDENKRQCQEDIKVMNDLVDKIIADRKARGEQSDDLLTQMLNGKDPETGEPLDDGNISYQIITFLIAGHETTSGLLSFALYFLVKNPHVLQKVVEEAARVLVDPVPSYKQVKQLKYVGMVLNEALRLWPTFPAFSLYAKEDTVLGGEYPLEKGDEVMVLIPQLHRDKTIWGDDVEEFRPERFENPSAIPQHAFKPFGNGQRACIGQQFALHEATLVLGMMLKHFDFEDHTNYELDIKETLTLKPEGFVVKAKSKKIPLGGIPSPSTYQSAKKVRKKAENAHNTPLLVLYGSNMGTAEGTARDLADIAMSKGFAPQVATLDSHAGNLPREGAVLIVTASYNGHPPDNAKQFVDWLDQASADEVKGVRYSVFGCGDKNWATTYQKVPAFIDETLAAKGAENIADRGEADASDDFEGTYEEWREHMWSDVAAYFNLDIENSEDNKSTLSLQFVDSAADMPLAKMHGAFSTNVVASKELQQPGSARSTRHLEIELPKEASYQEGDHLGVIPRNYEGTVNRVTARFGLDASQQIRLEAEEEKLAHLPLAKTVSVEELLQYVELQDPVTRTQLRAMAAKTVCPPHKVELEALLEKQAYKEQVLAKRLTMLELLEKYPACEMKFSEFIALLPSIRPRYYSISSSPRVDEKQASITVSVVSGEAWSGYGEYKGIASNYLAELQEGDTITCFISTPQSEFTLPKDPETPLIMVGPGTGVAPFRGFVQARKQLKEQGQSLGEAHLYFGCRSPHEDYLYQEELENAQSEGIITLHTAFSRMPNQPKTYVQHVMEQDGKKLIELLDQGAHFYICGDGSQMAPAVEATLMKSYADVHQVSEADARLWLQQLEEKGRYAKDVWAG | 13 | 0.7* | 0.8 |
